Measurements taken from patent publication US20050095247A1 (UNIVERSITY OF BRITISH COLUMBIA, published 2005).

Molecular target: T1, calmodulin (Homo sapiens (Human), UniProt P0DP23 2-149)
T1 construct: also called calmodulin-agarose
Test: pull-down of purified protein on calmodulin-agarose; anti-EF-1α immunoblot

B1: macrophage EF-1α (murine, from RAW 264.7 cells) (other)
chain: GKEKTHINIVVIGHVDSGKSTTTGHLIYKCGGIDKRTIEKFEKEAAEMGKGSFKYAWVLDKLKAERERGITIDISLWKFETSKYYVTIIDAPGHRDFIKNMITGTSQADCAVLIVAAGVGEFEAGISKNGQTREHALLAYTLGVKQLIVGVNKMDSTEPPYSQKRYEEIVKEVSTYIKKIGYNPDTVAFVPISGWNGDNMLEPSANMPWFKGWKVTRKDGSASGTTLLEALDCILPPTRPTDKPLRLPLQDVYKIGGIGTVPVGRVETGVLKPGMVVTFAPVNVTTEVKSVEMHHEALSEALPGDNVGFNVKNVSVKDVRRGNVAGDSKNDPPMEAAGFTAQVIILNHPGQISAGYAPVLDCHTAHIACKFAELKEKIDRRSGKKLEDGPKFLKSGDAAIVDMVPGKPMCVESFSDYPPLGRFAVRDMRQTVAVGVIKAVDKKAAGAGKVTKSAQKAQKAK
notes: also called host EF-1α; host-EF-1α
binding result: binds
